This is an account of results in patent US20210292392A1 (TSB THERAPEUTICS BEIJING, published 2021).

Experiment in all cases: cell-based or functional assay
For assay [1], the target named is T1, full length spike (S) protein of SARS-CoV-2 (SARS-CoV-2, UniProt P0DTC2 14-1273).
For assay [2], the target named is T1, full length spike (S) protein of …. This is another data set of the same source.
Assay [3] shares this target. The source holds these as a separate data set.
Assay [4] concerns the target full length S protein of SARS-CoV-2 (on pseudovirus) (SARS-CoV-2, UniProt P0DTC2 14-1273).

Numbering of substitutions follows the chain as printed. Numbers in names are those of the source. Like-named read-outs stand apart in the source and are kept apart here.

B1: P5A-1B8 (antibody, human IgG1, kappa, V domains shown)
VH: EVQLVESGGGLIQPGGSLRLSCAASGFTVSSNYMSWVRQAPGKGLEWVSVIYPGGSTFYADSVKGRFTISRDNSKNTLYLQMNSLRAEDTAVYYCARETLAFDYWGQGTLVTVSS
VL: DIQLTQSPSFLSASVGDRVTITCRASQGISSYLAWYQQKPGKAPKLLIYAASTLQSGVPSRFSGSGSGTEFTLTISSLQPEDFATYYCQQLNSYPPAFGGGTKVEIKR
Turning to B1, in assay [1], the “IC80, Pesudovirus neutralization” value was found to be 0.0509 µg/mL and the “IC90, Pesudovirus neutralization” value came to 0.137 µg/mL.

B2: P4A-1H6 (antibody, human IgG1, kappa, V domains shown)
VH: QVQLVESGGGVVQPGRSLRLSCAASGFTFSSYGMHWVRQSPGKGLEWVAVISDDGSNQYYADSVKGRFTISRDNSKNTLYLQMNSLRVEDTAVYYCAKRGGYCSTTSCLLRWVYFDFWGQGTLATVSS
VL: DIQMTQSPSSLSASVGDRVTITCRASQSISSYLHWYQQKPGKAPNLLIYAASSLQSGVPSRFSGSGSGTDFTLTISSLQPEDFATYYCQQSYNTPTFGPGTKVDIKR
For the molecule B2, in assay [1], the “IC90, Pesudovirus neutralization” value turned out to be 2.21 µg/mL.

B3: P5A-1B6 (antibody, human IgG1, kappa, V domains shown)
VH: QVQLVESGGGVVQPGRSLRLSCAASGFTFSSYAMHWVRQAPGKGLEWVAVISYDGSNKYYADSVKGRFTISRDNSKNTLYLQMNSLRAEDTAVYYCARDGQAITMVQGVIGPPFDYWGQGTLVTVSS
VL: not shown
Turning to B3, the “IC90, Pesudovirus neutralization” value in assay [1] came out at 4.2 µg/mL.

B4: P2C-1D5 (antibody, V domains shown)
VH: not shown
VL: SYVLTQPPSVSVAPGKTARITCGGNNIGSKSVHWYQQKPGQAPVLVIYYDSDRPSGIPERFSGSNSGNTATLTISRVEAGDEADYYCQVWDSSSDHHVFGTGTKVTVLG
As for B4, in assay [2], the “IC50, pseudovirus neutralization” value turned out to be 10.7 µg/mL; the “Neutralizing activity (%) Mean at 0.0228624 µg/ml” value is 4.24%; the “Neutralizing activity (%) Mean at 0.0685871 µg/ml” value is 5.65%; the “Neutralizing activity (%) Mean at 0.2057613 µg/ml” value came out at 8.66%. In assay [2], the “Neutralizing activity (%) Mean at 0.6172839 µg/ml” value was 12.4%, the “Neutralizing activity (%) Mean at 1.851852 µg/ml” value is 16.1%, the “Neutralizing activity (%) Mean at 5.555555 µg/ml” value came to 33.6% and the “Neutralizing activity (%) Mean at 16.66667 µg/ml” value came to 64.9%. Further, in assay [2], the “Neutralizing activity (%) Mean at 50 µg/ml” value worked out at 90.2%.

B5: P5A-2G7 (antibody, human IgG1, lambda, V domains shown)
VH: QVQLQESGPGLVKPSETLSLTCTVSGDSVSSGSYYWSWIRQPPGKGLEWIGYIYYSGSTNYNPSLKSRVTISVDTSKNQFSLKLSSVTAADTAVYYCARERCYYGSGRAPRCVWFDPWGQGTLVTVSS
VL: QSALTQPASVSGSPGQSITISCTGTSSDVGGYNYVSWYQQHPGKAPKLMIYDVSNRPSGVSNRFSGSKSGNTASLTISGLQAEDEADYYCSSYTSSSTLVVFGGGTKLTVLG
Regarding B5, the “IC50, pseudovirus neutralization” value in assay [3] was determined as 0.016 µg/mL.

B6: P5A-2G7 (antibody, human IgG1, lambda, V domains shown)
VH: B5 VH
VL: B5 VL
For B6, in assay [4], the “Pseudovirus IC50” value came out at 0.0044 µg/mL and the “Pseudovirus IC80” value is 0.0287 µg/mL.

B7: P5A-1D10 (antibody, human IgG1, lambda, V domains shown)
VH: QVQLVESGGGLVKPGGSLRLSCAASQFTFSDYSMTWIRQAPGKGLEWVSYISQSGSTIYYADSVKGRFTISRDNAKNSLYLQMNSLRAEDTAVYYCARGVSPSYVWGSYRSLYHFDYWGQGTLVTVSS
VL: B5 VL with G66A, Y93F, S97T, L99V
As for B7, in assay [1], the “IC50, Pesudovirus neutralization” value was found to be 5.72 µg/mL; the “IC80, Pesudovirus neutralization” value came out at 28.9 µg/mL; the “IC90, Pesudovirus neutralization” value worked out at 43.8 µg/mL.

B8: P2C-1C10 (antibody, V domains shown)
VH: QVQLVQSGAEVKKPGSSVKVSCKASGGTFSSYAIIWVRQAPGQGLEWMGGIIPIFGTANYAQKFQGRVTITADESTSTAYMELSSLRSEDTAVYYCARVVTGYYFDYWGQGTLVTVSS
VL: EIVLTQSPATLSLSPGERATLSCRASQSVSSYLAWYQQKPGQAPRLLIYDASNRATGIPARFSGSGSGTDFTLTISSLEPEDFAVYYCQQRSNWPSFGQGTKLEIKR
B8: in assay [2], the “IC50, pseudovirus neutralization” value stood at 2.62 µg/mL; the “Neutralizing activity (%) Mean at 0.0228624 µg/ml” value was -2.34%; the “Neutralizing activity (%) Mean at 0.0685871 µg/ml” value was 7.78%; the “Neutralizing activity (%) Mean at 0.2057613 µg/ml” value is 13.4%. Further, in assay [2], the “Neutralizing activity (%) Mean at 0.6172839 µg/ml” value worked out at 5.92%, the “Neutralizing activity (%) Mean at 1.851852 µg/ml” value amounted to 38.5%, the “Neutralizing activity (%) Mean at 5.555555 µg/ml” value came out at 88.9% and the “Neutralizing activity (%) Mean at 16.66667 µg/ml” value stood at 99.9%. In addition, the “Neutralizing activity (%) Mean at 50 µg/ml” value in assay [2] came to 100%.

B9: P5A-3A6 (antibody, human IgG1, lambda, V domains shown)
VH: EVQLVESGGGLVQPGRSLRLSCAASGFTFDDYAMHWVRQAPGKGLEWVSGISWNSGTIGYADSVKGRFIISRDNAKNSLYLQMNSLRAEDTALYYCAGGGTMVRGVIAGGGTHPVDDYYGMDVWGQGTTVTVSS
VL: QSALTQPASVSGSPGQSITISCTGTSSDVGGYNYVSWYQQHPGKAPKLMIYDVSNRPSGVSNRFSGSKSGNTASLTISGLQAEDEADYYCSSYTSSSTVVFGGGTKLTVLG
As for B9, in assay [1], the “IC50, Pesudovirus neutralization” value turned out to be 0.234 µg/mL; the “IC80, Pesudovirus neutralization” value was determined as 1.27 µg/mL; the “IC90, Pesudovirus neutralization” value is 2.77 µg/mL.

B10: P5A-1D2 (antibody, human IgG1, lambda, V domains shown)
VH: EVQLVESGGGLIQPGGSLRLSCAASGFIVSSNYMSWVRQAPGKGLEWVSIIYSGGSTYYADSVKGRFTISRDNSNNTLYLQMNSLRAEDTAVYYCARALQVGATSDYFDYWGQGTLVTVSS
VL: QSVLTQPPSVSGAPGQRVTISCTGSSSNIGAGYDVHWYQQLPGTAPKLLIYGNSNRPSGVPDRFSGSKSGTSASLAITGLQAEDETDYYCQSCDSSLSVVVFGGGTKLTVLG
As to B10, in assay [4], the “Pseudovirus IC50” value was 0.0186 µg/mL and the “Pseudovirus IC80” value was found to be 0.102 µg/mL.

B11: P5A-2G9 (antibody, human IgG1, lambda, V domains shown)
VH: QVQLVESGGGVVQPGRSLRLSCAASGFTFSSYGMHWVRQAPGKGLEWVAVIWYDGSNKYYADSVKGRFTISRDNSKNTLYLQMNSLRAEDTAVYYCARWFHTGGYFDYWGQGTLVTVSS
VL: QPVLTQPPSSSASPGESARLTCTLPSDINVSSYNIYWYQQKPGSPPRYLLYYYSDSDKGQGSGVPSRFSGSKDASANTGILLISGLQSEDEADYYCMIWPSNALYVFGTGTKVTVLG
Regarding B11, in assay [1], the “IC50, Pesudovirus neutralization” value was found to be 0.0158 µg/mL; the “IC80, Pesudovirus neutralization” value is 0.147 µg/mL; the “IC90, Pesudovirus neutralization” value was 0.498 µg/mL.

B12: P5A-2G9 (antibody, human IgG1, lambda, V domains shown)
VH: B11 VH
VL: B11 VL
Turning to B12, in assay [4], the “Pseudovirus IC50” value stood at 0.0158 µg/mL and the “Pseudovirus IC80” value was 0.147 µg/mL.

B13: P2C-1C8 (antibody, V domains shown)
VH: QVQLVESGGGVVQPGRSLRLSCAASGFTFRSYGMHWVRQAPGKGLEWVAVIWYDGSNKYYADSVKGRFTISRDNSKNTLYLQMNSLRAEDTAVYYCARDIEIVVVNIDYWGQGTLVTVSS
VL: not shown
On to B13, for which, in assay [2], the “Neutralizing activity (%) Mean at 0.0228624 µg/ml” value is -7.15%, the “Neutralizing activity (%) Mean at 0.0685871 µg/ml” value came to 2.8%, the “Neutralizing activity (%) Mean at 0.2057613 µg/ml” value came out at 4.92% and the “Neutralizing activity (%) Mean at 0.6172839 µg/ml” value turned out to be 10.1%. For the same molecule, in assay [2], the “Neutralizing activity (%) Mean at 1.851852 µg/ml” value was 8.39%, the “Neutralizing activity (%) Mean at 5.555555 µg/ml” value came out at 23.3%, the “Neutralizing activity (%) Mean at 16.66667 µg/ml” value was determined as 34.7% and the “Neutralizing activity (%) Mean at 50 µg/ml” value stood at 59.2%.

B14: P5A-3C12 (antibody, human IgG1, kappa, V domains shown)
VH: QITLKESGPTLVKPTQTLTLTCTFSGFSLSTSGVGVGWIRQPPGKALEWLALIYWDDDKRYSPSLKSRLTITKDTSKNQVVLTMTNMDPVDTATYYCAHSLFLTVGYSSSWSPFDYWGQGTLVTVSS
VL: not shown
B14: the “IC90, Pesudovirus neutralization” value in assay [1] was found to be 0.955 µg/mL.

B15: P5A-3C8 (antibody, human IgG1, kappa, V domains shown)
VH: EVQLVESGGGLIQPGGSLRLSCAASGFTVSSNYMSWVRQAPGKGLEWVSFIYSGGSTYYADSVKGRFTISRDNSKNTLYLQMNSLRAEDTAVYYCARDLQEHGMDVWGQGTTVTVSS
VL: DIQLTQSPSSLSASVGDRVTITCRASQGISSYLAWYQQKPGKAPKLLIYAASTLQSGVPSRFSGSGSGTDFTLTISSLQPEDFATYYCQHLNSYPPGYTFGQGTKLEIKR
As to B15, the “IC50, pseudovirus neutralization” value in assay [3] amounted to 0.024 µg/mL.

B16: P22A-1D1 (antibody, human IgG1, kappa, V domains shown)
VH: B15 VH with F50V, L99R, Q100D, E101Y, H102Y
VL: DIQLTQSPSFLSASVGDRVTITCRASQGISSYLAWYQQKPGKAPKLLIYAASTLQSGVPSRFSGSGSGTEFTLTISSLQPEDFATYYCLHLNSYRTFGLGTKVEIKR
With B16, in assay [1], the “IC90, Pesudovirus neutralization” value was determined as 0.399 µg/mL.

B17: P5A-3A1 (antibody, V domains shown)
VH: B15 VH with F50V, L99Y, Q100G, E101D, H102F, G103Y, M104F, V106Y, T112L
VL: not shown
Consider B17, for which the “IC90, Pesudovirus neutralization” value in assay [1] was 7.2 µg/mL.

B18: P5A-1D1 (antibody, V domains shown)
VH: B15 VH with F27L, F50V, Q100Y, E101Y, H102Y, S117T
VL: B16 VL with E70D, L89Q, H90Q, R95P, L99Q, K102R, V103L
Turning to B18, the “IC90, Pesudovirus neutralization” value in assay [1] was found to be 0.232 µg/mL.
